{"source": "patent US20110287036A1", "about": "“NOVEL CANCER TARGETING THERAPY USING COMPLEX OF SUBTANCE CAPABLE OF BINDING SPECIFICALLY TO CONSTITUENT FACTOR OF CANCER STROMA AND ANTI-TUMOR COMPOUND” (RIKEN, priority 2008, published 2011)", "system": "PSN1 or SUIT2", "assay": "In vivo imaging of IRDye800-labeled antibodies in tumor-bearing mice", "design": "species or system BALB/c nude mouse", "settings": "imaged 1, 3, 7 and 14 days after administration", "description": "PSN1 or SUIT2 was transplanted to the back of each BALB/c nude mouse (female, 6-week-old); 10 days after the transplantation, each antibody (labeled with IRDye800 (Li-Cor)) was administered from a tail vein of the mouse. 1 day, 3 days, 7 days, and 14 days after the administration, the antibody distribution was analyzed using the in vivo imaging apparatus OV110 (Olympus).\nIn the figure, CD20 stands for the antihuman CD20 antibody, EpCAM for the antihuman EpCAM antibody, and Col. 4 for the antimouse type IV collagen antibody.", "data": [{"substance": "antihuman CD20 antibody: monoclonal antibody against human B cells, does not react with SUIT2; control", "values": [{"measurement": "accumulation in tumor tissue", "setting": "IRDye800-labeled antibody via tail vein 10 days after transplantation", "value": "accumulated selectively in tumor tissue due to an EPR effect"}, {"measurement": "duration of stay in / disappearance from tumor tissue", "setting": "IRDye800-labeled antibody via tail vein", "value": "disappeared from the tumor tissue earlier than the antimouse type IV collagen antibody"}]}]}
